# Measured values taken from patent US20100256332A1, “GLP-1 Fusion Peptides, Their Production and Use” (BIOCOMPATIBLES UK LTD, priority 2007, published 2010).
# B1: GLP-1(7-37)-IP2-RR-GLP2 (peptide)
# chain: HAEGTFTSDVSSYLEGQAAKEFIAWLVKGRGRRDFPEEVAIAEELGRRHADGSFSDEMSTILDNLATRDFINWLIQTKITDKK
# notes: 83 aa fusion peptide
# System: type II diabetic mice (C57BUKs-Lepr db/db)
# Test: In vivo bioactivity in type II diabetic mice
# Set-up: species or system mouse
# Conditions: 5 μg peptide s.c. twice a day, Day 2, 4, 7, 10, overnight fasted
# Description: 11-week-old type II diabetic mice (C57BUKs-Lepr^db/db, Harlan) were treated with 5 μg peptide by subcutaneous injection twice a day at 9 a.m. and 5 p.m. (n=5 per group).
# Blood glucose was measured before (day 0) and after treatment with GLP^CM peptides (Day 2, 4, 7, 10) at 10 a.m. after an overnight fastening period. Data were presented in relation to blood glucose levels measured at day 0.
# Best results were obtained with recombinant SEQ ID No.:6 (CM1) and synthetic SEQ ID No.:8 (CM3). In FIG. 5 (y-axis) the relative effect of the treatment is shown. Blood glucose at day=0 was set to 1. Untreated animals undergo continuous increase in blood glucose level over time, whereas animals treated with inventive peptides display grosso modo a continuous decrease of the blood glucose level over time.
molecule,measurement,value
B1,anti-hyperglycemia effect (blood glucose in relation to day 0),anti-hyperglycemia effect
